Laboratory results taken from IntAct's records for PubMed 16284401.

B1: Crk-like protein (Rattus norvegicus (Rat)), Q5U2U2 (parent)
chain: MSSARFDSSDRSAWYMGPVSRQEAQTRLQGQRHGMFLVRDSSTCPGDYVLSVSENSRVSHYIINSLPNRRFKIGDQEFDHLPALLEFYKIHYLDTTTLIEPAPRYPNPPMGSVSAPNLSTAEENLEYVRTLYDFPGNDAEDLPFKKGELLVIIEKPEEQWWSARNKDGRVGMIPVPYVEKLVRSSPHGKHGNRNSNSYGIPEPAHAYAQPQTTTPLPTVASTPGAAINPLPSTQNGPVFAKAIQKRVPCAYDKTALALEVGDIVKVTRMNINGQWEGEVNGRKGLFPFTHVKIFDPQNPDDNE
B2: Kinase D-interacting substrate of 220 kDa (Rattus norvegicus (Rat)), Q9EQG6 (parent)
chain: MSVLISQSVINYVEEENIPALKALLEKCKDVDERNECGQTPLMLAAEQGNVEIVKELLKNGANCNLEDLDNWTALISASKEGHIHIVEELLKSGASLEHRDMGGWTALMWACYKGRTDVVELLLSHGANPSVTGLYSVYPIIWAAGRGHADIVHLLLQNGAKVNCSDKYGTTPLVWAARKGHLECVKHLLAMGADVDQEGANSMTALIVAVKGGYTQSVKEILKRNPNVNLTDKDGNTALMIASKEGHIEIVQDLLDAGTYVNIPDRSGDTVLIGAVRGGHVEIVRALLQKYADIDIRGQDNKTALYWAVEKGNATMVRDILQCNPDTEICTKDGETPLIKATKMRNIEVVELLLDKGAKVSAVDKKGDTPLHVAIRGRSRRLAELLLRNPKDGRLLYRPNKAGETPYNIDCSHQKSILTQIFGARHLSPTETDGDMLGYDLYSSALADILSEPTMQPPICVGLYAQWGSGKSFLLKKLEDEMKTFAGQQTEPLFQFSWLIVFLTLLLCGGLGLVFAFTVDTNLAIAISLSFLALIYIFFIVIYFGGRREGESWNWAWALSTRLARHIGYLELLFKLMFVNPPELPEQTTKALPVRFLFTDYNRLSSVGGETSLAEMIATLSDACEREFGFLATRLFRVFRTEESQGKKKWKKTCCLPSFVIFLFIVGCIIAGITLLAIFRVDPKHLTVNAILISIASVVGLAFVLNCRTWWQVLDSLLNSQRKRLHSAASKLHKLKSEGFMKVLKCEVELMARMAKTIDSFTQNQTRLVVIIDGLDACEQDKVLQMLDTVRVLFSKGPFIAIFASDPHIIIKAINQNLNSVLRDSNINGHDYMRNIVHLPVFLNSRGLSNARKFLVTSATNGDITCSDTTGTQEDTDRRVSQNSLGEMTKLGSKTALNRRDTYRRRQMQRTITRQMSFDLTKLLVTEDWFSDISPQTMRRLLNIVSVTGRLLRANQITFNWDRLASWINLTEQWPYRTSWLILYLEETEGLPDQMTLKTIYERISKNIPTTKDVEPLLEIDGDIRNFEVFLSSRTPVLVARDVKTFLPCTVNLDPKLREIIADVRAAREQINIGGLAYPPLPLHEGPPRPPSGYSQPASVCSSASFNGPFPGGVVSPQPHSSYYSGLSGPQHPFYNRPFFAPYLYTPRYYPGGSQHLISRSSVKTSLPRDQNNGLPCDSGFNKQRQAAVPATGSSLLLSSMTVDVVCEKLRQIEGLDQSMMPQYCTTIKKANINGRVLSQCNIDELKKEMAMNFGDWHLFRSMVLEMRSVESQVVPEDPRFLNENSSAPVPHGESARRSSHTELPLTELSSQTPYTLNFSFEELNTLGLDEGAPRHSNLSWQSQTRRTPSLSSLNSQDSSIEISKLTDKVQAEYRDAYREYIAQMSQLEGGTGSSTISGRSSPHSTYYIGQSSSGGSIHSTLEQERGKEGELKQEDGRKSFLMKRGDVIDYSSSGVSTNEASPLDPITEEDEKSDQSGSKLLPGKKSSERPSLFQTDLKLKGGGLRYQKLPSDEDESGTEESDNTPLLKDDKDKKAEGKAERVCKSPEHSAEPIRTFIKAKEYLSDALLDKKDSSDSGVRSNESSPNHSLHNEAADDSQLEKANLIELEDEGHSGKRGMPHSLSGLQDPIIARMSICSEDKKSPSECSLIASSPEESWPACQKAYNLNRTPSTVTLNNNTAPTNRANQNFDEIEGIRETSQVILRPGPSPNPTAVQNENLKSMAHKRSQRSSYTRLSKDASELHAASSESTGFGEERESIL

Variants of: B1
Conditions: with kdis_rat Kidins220, Q9EQG6

effect of a mutation on the interaction	Variant
decreasing interaction	R39N

Variants of: B2
Conditions: with crkl_human CRKL

effect of a mutation on the interaction	Variant
decreasing interaction	Y1095F

Variants of: B2
Conditions: with crkl_rat Crkl, Q5U2U2

effect of a mutation on the interaction	Variant
decreasing interaction	Y1095F
